Experimental data as given in patent US20250381241A1 (Dana-Farber, published 2025).

Biological target: T1, WDR43 (human, UniProt Q15061 1-677, limits assumed)
T1 construct: Called a core transcriptional assembly factor at TSS; Endogenous protein from lysate
T1 sequence (looked up): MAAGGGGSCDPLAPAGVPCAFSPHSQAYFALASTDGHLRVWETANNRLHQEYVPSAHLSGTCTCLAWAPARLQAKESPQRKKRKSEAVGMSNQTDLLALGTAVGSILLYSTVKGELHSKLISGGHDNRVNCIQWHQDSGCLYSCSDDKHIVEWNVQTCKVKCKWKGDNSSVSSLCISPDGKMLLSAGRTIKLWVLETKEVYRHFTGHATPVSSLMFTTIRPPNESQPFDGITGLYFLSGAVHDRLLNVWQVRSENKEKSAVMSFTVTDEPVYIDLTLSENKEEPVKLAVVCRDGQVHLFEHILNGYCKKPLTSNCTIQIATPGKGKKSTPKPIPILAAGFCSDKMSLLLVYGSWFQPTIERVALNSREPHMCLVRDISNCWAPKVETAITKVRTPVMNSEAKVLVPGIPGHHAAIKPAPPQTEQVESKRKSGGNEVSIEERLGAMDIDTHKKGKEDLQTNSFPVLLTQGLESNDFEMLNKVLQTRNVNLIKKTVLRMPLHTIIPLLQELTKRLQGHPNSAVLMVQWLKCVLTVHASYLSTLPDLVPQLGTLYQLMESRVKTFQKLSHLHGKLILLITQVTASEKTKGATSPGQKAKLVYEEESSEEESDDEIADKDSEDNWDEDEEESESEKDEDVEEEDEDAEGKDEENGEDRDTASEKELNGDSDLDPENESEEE
Assay: co-immunoprecipitation of ectopically expressed HA-tagged RIOK2 with monoclonal anti-HA antibody beads, then LC-MS/MS; spectral counts normalised to the immunoprecipitated HA-RIOK2, fold change with respect to WT
Experimental: For collection of cellular lysates, lysis was similarly performed as described above. 5% of the supernatant was saved as Input, and pre-washed monoclonal anti-HA antibody tagged-agarose beads slurry (A2095, Sigma Aldrich) was added to the rest of the supernatant and incubated at 4° C. on a rocker O/N. The beads were washed with RIPA lysis buffer, resuspended in 2× laemmli buffer, boiled at 95° C. for 10 minutes, and immediately loaded for SDS-PAGE separation. Electrophoresis was performed until the proteins ran 1/6th of the entire gel size. The gel was Coomassie stained for 1 h at 25° C., de-stained at 4° C. O/N, and were cut with sterile blades, washed with MS-grade acetonitrile solution and submitted for Mass Spectrometry analysis at BIDMC Mass Spectrometry Core. […]
Gel separated protein samples were reduced with 55 mM DTT, alkylated with 10 mM iodoacetamide (Sigma-Aldrich), and digested O/N with TPCK modified trypsin/LysC (Promega) at pH=8.3. […] 3 μL of the digested protein samples were analyzed in positive ion mode via microcapillary tandem mass spectrometry (LC-MS/MS) using a high resolution hybrid QExactive HF Orbitrap Mass Spectrometer (Thermo Fisher Scientific) via HCD with data-dependent analysis (DDA) with 1 MS1 scan followed by 8 MS2 scans per cycle (Top 8). […]

B1: ΔTAD2 (enzyme, not shown: small tags and cut ends)
chain: MGKVNVAKLRYMSRDDFRVLTAVEMGMKNHEIVPGSLIASIASLKHGGCNKVLRELVKHKLIAWERTKTVQGYRLTRQVVESVGNQMGVGKESDIYIVANEEGQQFALKLHRLGRTSFRNLKNKRDYHKHRHNVSWLYLSRLSAMKEFAYMKALYERKFPVPKPIDYNRHAVVMELINGYPLCQIHHVEDPASVYDEAMELIVKLANHGLIHGDFNEFNLILDESDHITMIDFPQMVSTSHPNAEWYFDRDVKCIKDFFMKRFSYESELFPTFKDIRREDTLDVEVSASGYTKEMQADDELLHPLGPDDKNIETKEGSEFSFSDGEVAEKAEVYGSENESERNCLEESEGCYCRSSGDPEQIKEDSLSEESADARSFEMTEFNQALEEIKGQVVENNSVTEFSEEKNRTENYNRQDGQRVQGGVPAGSDEYEDECPHLIALSSLNREFRPFRDEENVGAMNQYRTRTLSITSSGSAVSCSTIPPELVKQKVKRQLTKQQKSAVRRRLQKGEANIFTKQRRENMQNIKSSLEAASFWGE
notes: The text defines it as N-terminal HA-tagged RIOK2 with amino acids 77-90 deleted; also called HA-ΔTAD2
binding result: no binding
